Measurements taken from patent publication US20230395187A1 (published 2023).

Target: SARS-CoV-2 spike protein, WT (SARS-CoV-2, UniProt P0DTC2 14-1208)
Experiment: virus-free Luminex binding assay, spike on beads

B1: Imdevimab (RGN87) (antibody, V domains shown)
VH: QVQLVESGGGVVQPGRSLRLSCAASGFTFSNYAMYWVRQAPGKGLEWVAVISYDGSNKYYADSVKGRFTISRDNSKNTLYLQMNSLRTEDTAVYYCASGSDYGDYLLVYWGQGTLVTVSS
VL: QSALTQPASVSGSPGQSITISCTGTSSDVGGYNYVSWYQQHPGKAPKLMIYDVSKRPSGVSNRFSGSKSGNTASLTISGLQSEDEADYYCNSLTSISTWVFGGGTKLTVLG
**Q.** With B1 as the binder, how does the EC50 read?
**A.** 0.082 mg/L
